How the values were obtained:
HIV-D = HIV-D (synthetic construct); experiment: ELONA; apparent Kd, phage ELISA, Zn2+; settings: protein: virion; label: biotin
6F6 (7N-4/3 six-finger) [1] = target: T1, 6F6 (7N-4/3 six-finger) (synthetic construct); experiment: EMSA; almost no affinity; 8 mismatches; settings: tags: Promega TNT; label: radiolabel
7N [2] = target: T2, 7N (synthetic construct); experiment: EMSA; settings: tags: Promega TNT; label: radiolabel
6F6 (7N-4/3 six-finger) [3] = target: T1, 6F6 (7N-4/3 six-finger); experiment: EMSA; affinity relative to 4/3 or 7N alone; settings: tags: Promega TNT; label: radiolabel
7N [4] = target: T2, 7N; experiment: EMSA; roughly similar apparent Kd to 4/3; settings: tags: Promega TNT; label: radiolabel
6F6 (7N-4/3 six-finger) [5] = target: T1, 6F6 (7N-4/3 six-finger); experiment: EMSA; almost no affinity; 3 mismatches; settings: tags: Promega TNT; label: radiolabel
7N [6] = target: T2, 7N; experiment: EMSA; intact t2 site; settings: tags: Promega TNT; label: radiolabel
6F6 (7N-4/3 six-finger) [7] = target: T1, 6F6 (7N-4/3 six-finger); experiment: EMSA; almost no affinity; 11 mismatches; settings: tags: Promega TNT; label: radiolabel
7N [8] = target: T2, 7N; experiment: ELONA; apparent Kd comparable with Zif268, weakest of the three; phage ELISA; settings: protein: virion
HIV-C = HIV-C (synthetic construct); experiment: ELONA; apparent Kd, phage ELISA, Zn2+; settings: protein: virion; label: biotin
HIV-G = HIV-G (synthetic construct); experiment: ELONA; apparent Kd, phage ELISA, Zn2+; settings: protein: virion; label: biotin
HIV-F = HIV-F (synthetic construct); experiment: ELONA; apparent Kd, phage ELISA, Zn2+; settings: protein: virion; label: biotin
HIV-E = HIV-E (synthetic construct); experiment: ELONA; apparent Kd, phage ELISA; F3 subsite printed differently in original table; settings: protein: virion; label: biotin

T1 sequence (chain, as listed by the source): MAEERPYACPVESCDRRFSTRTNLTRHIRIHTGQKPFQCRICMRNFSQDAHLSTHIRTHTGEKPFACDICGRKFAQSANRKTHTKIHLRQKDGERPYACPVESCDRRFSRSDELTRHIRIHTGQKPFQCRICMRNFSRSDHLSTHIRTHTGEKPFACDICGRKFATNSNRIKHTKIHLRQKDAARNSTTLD

B1: HIV-D site (dsDNA)
DNA 1: GCAGCTGCTT
DNA 2: AAGCAGCTGC
HIV-D
  Kd: 4 nM

B2: IE110 probe (dsDNA)
DNA 1: TGGGTTCCGGGTATGGTAATGAGTTTCTTC
DNA 2: GAAGAAACTCATTACCATACCCGGAACCCA
6F6 (7N-4/3 six-finger) [1]
  binding result: no binding
7N [2]
  binding result: binds

B3: T24 probe (dsDNA)
DNA 1: CCGCCGGATCGGGCGGTAATGAGATGCCATG
DNA 2: CATGGCATCTCATTACCGCCCGATCCGGCGG
6F6 (7N-4/3 six-finger) [3]
  binding signal: ≥ 25 fold
7N [4]
  binding result: binds

B4: 68K probe (dsDNA)
DNA 1: CTTCCCGGTTCGGCGGTAATGAGATACGAG
DNA 2: CTCGTATCTCATTACCGCCGAACCGGGAAG
6F6 (7N-4/3 six-finger) [5]
  binding result: no binding
7N [6]
  binding result: binds

B5: H2B probe (dsDNA)
DNA 1: ATAGAATCGCTTATGCAAATAAGGTGAAGA
DNA 2: TCTTCACCTTATTTGCATAAGCGATTCTAT
6F6 (7N-4/3 six-finger) [7]
  binding result: no binding

B6: t2 (dsDNA)
DNA 1: TAATGAGAT
DNA 2: ATCTCATTA
7N [8]
  Kd: ~1 nM

B7: HIV-C site (dsDNA)
DNA 1: GATGCTGCAT
DNA 2: ATGCAGCATC
HIV-C
  Kd: 13.7 nM

B8: HIV-G site (dsDNA)
DNA 1: GCTAACTAGG
DNA 2: CCTAGTTAGC
HIV-G
  Kd: 40.3 nM

B9: HIV-F site (dsDNA)
DNA 1: GGAGCTCTCT
DNA 2: AGAGAGCTCC
HIV-F
  Kd: 13.3 nM

B10: HIV-E site (dsDNA)
DNA 1: ATCTGAGCCT
DNA 2: AGGCTCAGAT
HIV-E
  Kd: 36.6 nM

From patent US20040039175, “Modulation of viral gene expression by engineered zinc finger proteins” (published 2004)
